{"source": "paper PMC10680758", "binders": {"B1": {"name": "rpl41a 51mer-FAM (ssRNA)", "RNA": "GGAGACCACAUCGAUUCAAUCGAAAUGAGAGCCAAGUGGAGAAAGAAGAGA"}}, "target": "T1, eIF4G (unlabeled) (Saccharomyces cerevisiae, UniProt P39935 1-952)", "T1 sequence": "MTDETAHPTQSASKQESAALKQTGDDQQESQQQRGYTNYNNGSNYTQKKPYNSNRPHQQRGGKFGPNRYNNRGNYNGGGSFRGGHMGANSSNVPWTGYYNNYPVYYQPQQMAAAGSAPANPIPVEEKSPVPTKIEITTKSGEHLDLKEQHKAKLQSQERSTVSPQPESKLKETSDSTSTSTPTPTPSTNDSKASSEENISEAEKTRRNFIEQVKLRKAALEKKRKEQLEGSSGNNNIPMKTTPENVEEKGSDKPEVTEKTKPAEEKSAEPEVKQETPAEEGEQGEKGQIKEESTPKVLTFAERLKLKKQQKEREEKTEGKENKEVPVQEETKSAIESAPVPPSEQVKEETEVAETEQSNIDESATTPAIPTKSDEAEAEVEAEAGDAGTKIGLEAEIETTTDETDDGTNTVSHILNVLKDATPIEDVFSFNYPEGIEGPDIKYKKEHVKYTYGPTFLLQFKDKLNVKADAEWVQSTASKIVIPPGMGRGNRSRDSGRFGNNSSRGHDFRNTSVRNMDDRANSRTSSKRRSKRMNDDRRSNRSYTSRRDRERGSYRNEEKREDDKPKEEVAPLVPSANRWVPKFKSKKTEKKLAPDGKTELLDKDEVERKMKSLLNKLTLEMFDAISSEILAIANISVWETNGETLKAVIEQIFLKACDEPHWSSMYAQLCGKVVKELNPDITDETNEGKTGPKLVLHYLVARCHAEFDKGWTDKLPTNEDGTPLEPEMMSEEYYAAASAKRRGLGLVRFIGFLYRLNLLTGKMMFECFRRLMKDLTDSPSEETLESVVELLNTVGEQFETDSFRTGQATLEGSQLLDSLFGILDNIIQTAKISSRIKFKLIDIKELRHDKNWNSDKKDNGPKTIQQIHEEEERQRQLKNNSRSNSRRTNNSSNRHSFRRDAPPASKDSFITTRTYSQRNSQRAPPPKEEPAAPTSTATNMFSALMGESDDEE", "test": "fluorescence anisotropy"}
{"binder": "B1", "values": [{"measurement": "binding result", "value": "binds"}]}
